These results are taken from article PMC12015215, “Structural basis of human Mediator recruitment by the phosphorylated transcription factor Elk-1” (Nature Communications, 2025).

Read-outs that look alike come from different tables or passages of the source.

The target in experiment [1] is T1, BAP-MED23-6His, biotinylated (human, UniProt Q9ULK4-1 1-1368, biotin on the BAP tag (biotinylated during expression)).
T1 construct: Mediator complex subunit MED23, human, isoform 1 (NM_004830.3); Captured by its biotin on a streptavidin SA chip; also called biotinylated MED23; MED23 with a BAP tag; source: insect cells (pFastBac Dual with BirA biotin ligase), purified by the same procedure as MED23-6His; not shown: BAP (biotin acceptor peptide), N-terminal, kept
T1 sequence: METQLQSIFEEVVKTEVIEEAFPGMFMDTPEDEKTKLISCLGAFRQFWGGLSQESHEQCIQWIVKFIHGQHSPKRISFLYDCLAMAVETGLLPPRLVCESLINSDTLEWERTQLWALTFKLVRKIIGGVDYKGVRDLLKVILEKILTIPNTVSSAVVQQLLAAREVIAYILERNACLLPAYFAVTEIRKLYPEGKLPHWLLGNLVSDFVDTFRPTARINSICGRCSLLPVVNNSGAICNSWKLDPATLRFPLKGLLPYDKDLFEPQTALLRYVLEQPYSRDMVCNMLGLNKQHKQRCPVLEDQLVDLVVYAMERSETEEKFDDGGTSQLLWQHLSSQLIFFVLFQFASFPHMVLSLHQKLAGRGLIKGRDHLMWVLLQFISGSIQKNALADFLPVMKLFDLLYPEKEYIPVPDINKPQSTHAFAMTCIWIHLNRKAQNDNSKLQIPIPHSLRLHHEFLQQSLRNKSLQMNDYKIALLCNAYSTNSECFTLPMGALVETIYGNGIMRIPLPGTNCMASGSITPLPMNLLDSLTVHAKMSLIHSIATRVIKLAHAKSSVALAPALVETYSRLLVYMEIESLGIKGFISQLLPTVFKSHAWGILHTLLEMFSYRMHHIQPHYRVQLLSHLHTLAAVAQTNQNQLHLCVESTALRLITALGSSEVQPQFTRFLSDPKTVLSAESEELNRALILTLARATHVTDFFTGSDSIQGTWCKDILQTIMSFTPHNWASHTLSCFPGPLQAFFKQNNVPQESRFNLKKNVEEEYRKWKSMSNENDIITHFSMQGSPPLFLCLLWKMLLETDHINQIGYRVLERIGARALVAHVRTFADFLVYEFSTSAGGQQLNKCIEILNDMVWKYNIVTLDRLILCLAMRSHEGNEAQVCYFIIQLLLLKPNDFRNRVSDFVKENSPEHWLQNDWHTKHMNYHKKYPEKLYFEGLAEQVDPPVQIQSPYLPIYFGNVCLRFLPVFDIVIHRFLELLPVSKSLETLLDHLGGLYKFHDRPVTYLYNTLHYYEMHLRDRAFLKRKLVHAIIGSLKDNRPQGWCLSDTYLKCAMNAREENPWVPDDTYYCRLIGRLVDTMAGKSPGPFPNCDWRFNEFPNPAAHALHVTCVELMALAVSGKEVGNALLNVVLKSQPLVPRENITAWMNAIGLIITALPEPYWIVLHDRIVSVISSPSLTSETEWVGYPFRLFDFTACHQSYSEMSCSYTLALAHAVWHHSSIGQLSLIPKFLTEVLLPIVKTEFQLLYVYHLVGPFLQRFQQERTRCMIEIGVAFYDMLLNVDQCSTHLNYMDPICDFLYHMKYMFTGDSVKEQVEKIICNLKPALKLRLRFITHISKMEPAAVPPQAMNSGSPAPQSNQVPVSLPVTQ
Briefly: SPR; BIAcore T200; biotinylated BAP-MED23 captured on a streptavidin SA chip (2000-3000 RU), PBS+ buffer; GST-fused Elk-1 derivatives injected at 0.25-4 µM, single-cycle kinetics in triplicate, 1:1 Langmuir model. For orientation: SPR reads the build-up and loss of mass on a sensor chip optically.

Experiment [2] deals with T2, MED23-6His (human Mediator complex subunit MED23, wild type) (human, UniProt Q9ULK4-1 1-1368).
T2 construct: Mediator complex subunit MED23, human, isoform 1 (NM_004830.3); cloned before a rhinovirus 3C protease site followed by a 6xHis tag; The stored protein is named MED23-6His; cleavage by 3C protease is not reported; In the functional rows MED23 WT was expressed from PIN510A-1 or FC550A-1 plasmids in MED23-/- MEFs; also called MED23 WT; recombinant MED23; source: ExpiSF9 insect cells (baculovirus), …
T2 sequence: T1 sequence
Briefly: pull-down; 4 µg GST constructs immobilised on GST-Trap agarose; 20 µg recombinant MED23 or MED23 G382F, 90 min at 4 °C in PBS-casein; SDS-PAGE, Coomassie. The conditions noted are these: both partners purified.

As usually defined, the Kd is a measure of binding affinity in units of concentration. Read a low Kd as a tighter complex.

Molecule “GST-fused Elk-1^1P (S383P) (308–401)-6His, phosphorylated only at S383 (from UniProt P19419 308-401) (domain or fragment)” came in with a Kd in experiment [1] of 81 nM.
The molecule “GST-fused Elk-1^2P (T368P/S383P) (308–401)-6His, phosphorylated at T368 and S383 (from UniProt P19419 308-401) (domain or fragment)” yielded a Kd in experiment [1] of 42 nM.
The same measure, in the same setting: the result for “GST-fused Elk-1^2P (T368P/S389P) (308–401)-6His, phosphorylated at T368 and S389 (from UniProt P19419 308-401) (domain or fragment)” reads 75 nM.

B1: phosphorylated GST-Elk-1^8P (308–428)-6His (domain or fragment, UniProt P19419 308-428, looked up)
chain: SQPQKGRKPRDLELPLSPSLLGGPGPERTPGSGSGSGLQAPGPALTPSLLPTHTLTPVLLTPSSLPPSIHFWSTLSPIAPRSPAKLSFQFPSSGSAQVHIPSISVDGLSTPVVLSPGPQKP
modifications: phosphorylated in E. coli by co-expressed ERK2-GOF/MEK1DD; which of the eight S/T-P sites carry phosphate is not stated
notes: In pGEX-6P1; also called Elk-1 TAD; Gal4-Elk-1^8P (308–428) in the reporter assays; source: E. coli BL21 (DE3), co-expressed with MBP-ERK2-GOF/MEK1DD, purified (GSTrap 4B and/or HisTap HP); not shown: GST, N-terminal, kept
Consider B1, for which the binding result in experiment [2] is “binds”.

B2: GST-fused Elk-1^3P (308–401)-6His, phosphorylated at T368, S383 and S389 (domain or fragment, UniProt P19419 308-401, looked up)
chain: SQPQKGRKPRDLELPLSPSLLGGPGPERAPGSGSGSGLQAPGPALAPSLLPTHTLAPVLLTPSSLPPSIHFWSTLSPIAPRSPAKLSFQFPSSG
modifications: phosphorylated at T368, S383 and S389 by co-expressed ERK kinase
notes: In pGEX-4T1 (synthesised by Genscript); also called triply phosphorylated Elk-1; source: E. coli BL21 (DE3), co-expressed with MBP-ERK2-GOF/MEK1DD, purified (GSTrap 4B and/or HisTap HP)
For B2, the Kd in experiment [1] (both partners purified) stood at 60 nM.
